Source: PMC9018702

B1: EAT1 promoter P1 probe (dsDNA)
DNA 1: GCGTATCGTGGTCATCTGTCTATTTTACATGCACTTGTAGCTGGATAAA
DNA 2: TTTATCCAGCTACAAGTGCATGTAAAATAGACAGATGACCACGATACGC
B2: EAT1 promoter P1 unlabeled competitor (dsDNA)
DNA 1: B1 DNA 1
DNA 2: B1 DNA 2

How the values were obtained:
MBP-TDR [1] = biological target: T1, MBP-TDR (Oryza sativa (ORF cloned from ZH11), UniProt Q6YUS3 1-552); experiment: EMSA; EMSA: 10 mM Tris-HCl pH 7.5, 50 mM KCl, 5 mM MgCl2, 1 mM DTT, 2.5% glycerol, 0.05% NP-40, 50 ng/uL poly(dI-dC), 10 fmol probe, 1 ug protein in 20 uL, room tempe
MBP-TDR [2] = biological target: T1, MBP-TDR; experiment: competition; 10-, 20-, 100-fold excess unlabeled probe eliminates shift; EMSA: 10 mM Tris-HCl pH 7.5, 50 mM KCl, 5 mM MgCl2, 1 mM DTT, 2.5% glycerol, 0.05% NP-40, 50 ng/uL poly(dI-dC), 10 fmol probe, 1 ug protein in 20 uL, room tempe

Binder | binding result (MBP-TDR [1]) | binding result (MBP-TDR [2])
B1 | binds | –
B2 | – | binds
